Experimental data from patent US20260226173A1, “COMPOSITIONS INCLUDING ANTI-WT-1 ANTIBODIES & ANTIGEN BINDING FRAGMENTS AND USES THEREOF” (Memorial Sloan-Kettering Cancer Center, priority 2023, published 2026).

Legend:
[1] = biological target: WT1 RMF (…)/HLA-A2 complex on cells (human); assay: flow cytometry, primary AML cells (FIG. 18 shows sample 92C per paragraph 796) stained with PE-conjugated isotype control mouse IgG at 3 µg/ml; unstained 124
[2] = biological target: HLA-A2 with endogenous peptides on HLA-A2-positive cells not pulsed with peptide (SKLY-16, normal cells of HLA-A2+ donors) (human); assay: flow cytometry, whole blood of an HLA-A2 positive healthy donor, neutrophil gate, CD15 against isotype control
[3] = biological target: HLA-A2 with endogenous peptides on HLA-A2-positive cells not pulsed with peptide (SKLY-16, normal cells of HLA-A2+ donors) (human); assay: flow cytometry, PBMCs of an HLA-A2 positive healthy donor, CD33 against isotype control
[4] = biological target: HLA-A2 with endogenous peptides on HLA-A2-positive cells not pulsed with peptide (SKLY-16, normal cells of HLA-A2+ donors) (human); assay: flow cytometry, PBMCs of an HLA-A2 positive healthy donor, CD19 against isotype control

Iso. (antibody)
MFI [1]: 372

Isotype (antibody)
% of gated neutrophils CD15+ and isotype+ (upper right quadrant) [2]: 0.04%
% of gated neutrophils CD15- and isotype+ (lower right quadrant) [2]: 0.02%
% of PBMCs CD33+ and isotype+ (upper right quadrant) [3]: 0.03%
% of PBMCs CD33- and isotype+ (lower right quadrant) [3]: 1.07%
% of PBMCs CD19+ and isotype+ (upper right quadrant) [4]: 0.91%
% of PBMCs CD19- and isotype+ (lower right quadrant) [4]: 0.05%
